Results from patent publication US20140322218A1 (Amgen, published 2014).

Columns and labels:
Experiment in all cases: FACS, transfected 293T
[1] = molecular target: T1, ckCDH19(1-43)::FLAG::ckCDH19(44-776), on 293T cells (chicken)
T1 construct: Entry holds leader (1-43), Flag tag and CDH19 part; leader left out; also called Ck EC1-5
T1 chain: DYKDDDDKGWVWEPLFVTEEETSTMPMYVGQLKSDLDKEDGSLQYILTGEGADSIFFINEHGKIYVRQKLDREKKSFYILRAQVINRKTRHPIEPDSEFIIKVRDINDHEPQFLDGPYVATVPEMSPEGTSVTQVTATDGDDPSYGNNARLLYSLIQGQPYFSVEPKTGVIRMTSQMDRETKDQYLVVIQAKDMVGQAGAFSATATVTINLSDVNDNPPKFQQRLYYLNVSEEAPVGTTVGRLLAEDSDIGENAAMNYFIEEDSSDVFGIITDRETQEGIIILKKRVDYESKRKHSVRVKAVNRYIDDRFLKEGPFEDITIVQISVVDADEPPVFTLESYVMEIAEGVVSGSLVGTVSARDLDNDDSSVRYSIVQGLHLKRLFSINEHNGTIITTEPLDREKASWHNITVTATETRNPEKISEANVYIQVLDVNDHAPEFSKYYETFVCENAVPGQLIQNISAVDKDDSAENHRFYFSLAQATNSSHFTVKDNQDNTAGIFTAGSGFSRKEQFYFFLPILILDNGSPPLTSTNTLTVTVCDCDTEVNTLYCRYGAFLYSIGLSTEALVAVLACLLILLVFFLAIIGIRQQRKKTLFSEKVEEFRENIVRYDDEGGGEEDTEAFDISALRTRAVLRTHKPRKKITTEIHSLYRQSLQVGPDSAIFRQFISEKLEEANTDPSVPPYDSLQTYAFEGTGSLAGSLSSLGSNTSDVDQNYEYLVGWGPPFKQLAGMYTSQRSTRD
Protocol: (§1) The following binding assay was completed in presence of 2 mM CaCl2. […] Cells were then washed one time and the amount of cell associated Alexa647-labelled Ab was quantitated by flow cytometry. The experiments included mock transfected controls.

[2] = molecular target: T2, huCDH19(1-43)::FLAG::hu(44-141)::ckCDH19(142-776), on 293T cells (human/chicken chimera)
T2 construct: Entry holds leader (1-43), Flag tag and CDH19 part; leader left out; also called Hu EC1 (chicken backbone)
Protocol: as §1

[3] = molecular target: T3, ckCDH19(1-43)::FLAG::ckCDH19(44-249)::huCDH19(250-364)::ckCDH19(365-776), on 293T cells (human/chicken chimera)
T3 construct: Entry holds leader (1-43), Flag tag and CDH19 part; leader left out; also called Hu EC3 (chicken backbone)
Protocol: as §1

[4] = molecular target: T4, rhCDH19(1-43)::FLAG::rhCDH19(44-772), on 293T cells (rhesus macaque, UniProt Q9H159 44-772 (human entry))
T4 construct: Entry holds leader (1-43), Flag tag and CDH19 part; leader left out; also called Rh EC1-5
T4 chain: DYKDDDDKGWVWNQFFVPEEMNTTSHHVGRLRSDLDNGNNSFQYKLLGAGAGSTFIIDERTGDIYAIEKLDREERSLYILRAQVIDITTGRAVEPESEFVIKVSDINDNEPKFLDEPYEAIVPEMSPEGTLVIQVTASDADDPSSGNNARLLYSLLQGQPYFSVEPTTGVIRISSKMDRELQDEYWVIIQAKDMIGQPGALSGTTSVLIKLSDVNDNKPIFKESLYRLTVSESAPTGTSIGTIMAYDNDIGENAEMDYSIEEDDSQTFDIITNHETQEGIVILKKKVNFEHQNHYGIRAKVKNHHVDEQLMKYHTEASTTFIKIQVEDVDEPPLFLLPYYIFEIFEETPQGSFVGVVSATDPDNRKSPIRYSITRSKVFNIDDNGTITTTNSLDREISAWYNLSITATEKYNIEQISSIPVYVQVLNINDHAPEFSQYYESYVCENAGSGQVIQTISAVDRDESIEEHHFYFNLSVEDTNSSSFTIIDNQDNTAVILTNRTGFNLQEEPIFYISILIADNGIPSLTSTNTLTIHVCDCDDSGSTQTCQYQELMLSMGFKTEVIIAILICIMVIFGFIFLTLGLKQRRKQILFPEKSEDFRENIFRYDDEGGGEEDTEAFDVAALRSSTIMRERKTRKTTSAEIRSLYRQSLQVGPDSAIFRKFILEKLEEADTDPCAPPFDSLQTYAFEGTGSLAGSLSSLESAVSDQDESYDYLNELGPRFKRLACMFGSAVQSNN
Protocol: as §1

[5] = molecular target: T5, raCDH19(1-43)::FLAG::raCDH19(44-770), on 293T cells (rat)
T5 construct: Entry holds leader (1-43), Flag tag and CDH19 part; leader left out; also called Ra EC1-5
T5 chain: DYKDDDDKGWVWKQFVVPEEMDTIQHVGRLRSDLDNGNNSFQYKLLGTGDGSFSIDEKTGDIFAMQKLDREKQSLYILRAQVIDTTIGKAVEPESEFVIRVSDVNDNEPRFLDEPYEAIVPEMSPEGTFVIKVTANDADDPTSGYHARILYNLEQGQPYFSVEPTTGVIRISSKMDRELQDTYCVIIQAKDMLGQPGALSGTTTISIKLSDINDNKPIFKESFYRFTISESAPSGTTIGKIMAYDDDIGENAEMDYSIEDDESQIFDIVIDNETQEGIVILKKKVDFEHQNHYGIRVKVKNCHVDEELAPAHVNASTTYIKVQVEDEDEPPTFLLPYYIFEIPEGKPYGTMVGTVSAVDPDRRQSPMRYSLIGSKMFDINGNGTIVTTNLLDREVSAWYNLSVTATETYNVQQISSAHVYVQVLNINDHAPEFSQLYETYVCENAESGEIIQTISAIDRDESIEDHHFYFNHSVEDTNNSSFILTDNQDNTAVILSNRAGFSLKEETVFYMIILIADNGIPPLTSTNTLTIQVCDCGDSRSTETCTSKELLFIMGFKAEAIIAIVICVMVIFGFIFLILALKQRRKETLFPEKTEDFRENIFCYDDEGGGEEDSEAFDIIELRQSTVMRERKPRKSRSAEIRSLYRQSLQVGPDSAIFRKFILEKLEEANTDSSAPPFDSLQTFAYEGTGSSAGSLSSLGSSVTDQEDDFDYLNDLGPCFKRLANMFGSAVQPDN
Protocol: as §1

| Binder | binding result [1] | binding result [2] | binding result [3] | binding result [4] | binding result [5] |
| --- | --- | --- | --- | --- | --- |
| anti-CDH19 antibody 2G6 (Ab ID 13588) (antibody, human IgG1, lambda, V domains shown) VH: QVQLVESGGGVVQPGRSLRLSCAASGFTFSSYGMHWVRQAPGKGLEWVAFIWYDGSNKYYADSVKDRFTISRDNSKNTLYLQMKSLRAEDTAVYYCARRAGIIGTIGYYYGMDVWGQGTTVTVSS VL: SYELTQPPSVSVSPGQTASITCSGDRLGEKYTCWYQQRPGQSPLLVIYQDTKRPSGIPERFSGSNSGNTATLTISGTQAMDEADYYCQAWDSSTVVFGGGTKLTVLG | no binding (tested: 5 ug/ml) | no binding (tested: 5 ug/ml) | binds | binds | binds |
| hu anti-<huCDH19> 23A10.3 (1-474)(L92Q) VH::huIgG1z / 23A10.3 (1-231)(C42S) VL::huLLC-C2 (Ab ID 14077) (antibody, V domains shown, Engineered variant of 23A10) VH: QVQLVESGGGVVQPGRSLRLSCAASGFTFSRYGIHWVRQAPGKGLEWVAVIWYDGSNKYYADSVKGRFTISRDNSKNTLYLQMNSLRAEDSAVYYCARRAGIPGTTGYYYGMDVWGQGTTVTVSS VL: SYELTQPPSVSVSPGQTASITCSGDRLGEKYVSWYQQKPGQSPILVIYQDNKWPSGIPERFSGSNSGNTATLTISGTQAMDEADYYCQAWDSSTVVFGGGTKLTVLG | no binding (tested: 5 ug/ml) | no binding (tested: 5 ug/ml) | binds | binds | binds |
| anti-CDH19 antibody 4A2 (Ab ID 13592) (antibody, human IgG1, kappa, V domains shown) VH: QVQLQESGPGLVKPSQTLSLTCTVSGGSISSSGYYWSWIRQHPGKGLEWIGYIYYTGSAYYNPSLKSRVTISVDTSKNQFSLKLSSVTAADTAVYYCARDGSSGWYFQYWGQGTLVTVSS VL: EIVLTQSPGTLSLSPGERATLSCRASRNISSSYLAWYQQKPGQAPRLLIYGPSSRATGIPDRFSGSGSGTDFTLTISRLEPEDFTVYYCQQYGSSFTFGPGTKVDIKR | no binding (tested: 5 ug/ml) | no binding (tested: 5 ug/ml) | – | binds | – |
| hu anti-<huCDH19> 4A9 VH::huIgG1z / 4A9 VL::huLLC-C1 (Ab ID 13589) (antibody, V domains shown, Recombinant fully human IgG1) VH: QVQLQESGPGLVKPSETLSLTCTVSGGSISGYYWSWIRQPPGKGLEWFAYFSYSGSTNYNPSLKSRVTLSVDTSKNQFSLKLSSVTAADTAVYYCARNWAFHFDFWGQGTLVTVSS VL: QSVLTQPPSVSGAPGQRVTISCTGSSSNIGTGYAVHWYQQFPGTAPKLLIYGNNNRPSGVPDRFSGSKSGTSASLAITGLQAEDEADYYCQSYDSRLSGWVFGGGTKLTVLG | no binding (tested: 5 ug/ml) | binds | no binding (tested: 5 ug/ml) | binds | no binding (tested: 5 ug/ml) |
| hu anti-<huCDH19> 25F8.1 (1-469)(F90Y) VH::huIgG1z / 25F8.1 (1-235)(K45Q,S102A,D111E) VL::huLLC-C2 (Ab ID 14096) (antibody, V domains shown, Engineered variant of 25F8) VH: QVQLVQSGAEVKKPGASVKVSCKASGYTFTSYYIHWVRQAPGQGLEWMGIINPSGGSTRYAQKFQGRVTMTRDTSTSTVYMELSSLRSEDTAVYYCARGGIQLWLHFDYWGQGTLVTVSS VL: not shown | no binding (tested: 5 ug/ml) | binds | no binding (tested: 5 ug/ml) | binds | no binding (tested: 5 ug/ml) |
| hu anti-<huCDH19> 26D1.1 VH::huIgG1z / 26D1.1 VL::huLLC-C2 (Ab ID 13882) (antibody, V domains shown) VH: QVQLVQSGAEVKKPGASVKVSCKASRYTFTSYYMSWVRQAPGQGLEWMGIIHPSGGDTTYAQKFQGRVTMTGDTSTSTVYMELSSLRSEDTAVYYCARGGIKLWLHFDYWGQGTLVTVSS VL: not shown | no binding (tested: 5 ug/ml) | binds | no binding (tested: 5 ug/ml) | binds | no binding (tested: 5 ug/ml) |
| hu anti-<huCDH19> 4B10 VH::huIgG1z / 4B10 VL::huKLC (Ab ID 13590) (antibody, V domains shown) VH: QVQLVESGGGVVQPGRSLRLSCAASGFTFSSYDMHWVRQAPGKGLEWVAVISYDGTNEYYADSVKGRFTISRDTSKNTLYLQMNSLRAEDTAVYYCARERYFDWSFDYWGQGTLVSVSS VL: EIVLTQSPGTLSLSPGERATLSCRASQSVSNTYLAWYHQRPGQAPRLLIYGASSRATGIPDRFSGSGSGTDFALTISSLEPEDFAVYYCQQYSNSWTFGQGTKVEIKR | no binding (tested: 5 ug/ml) | no binding (tested: 5 ug/ml) | binds | binds | binds |
